Laboratory results from the supplement of paper PMC7877785.
± gives the uncertainty stated by the source.

Test: self-splicing fitness, log relative to wild type (ln ratio); higher = more splicing; Tetrahymena group I intron in knt gene, E. coli kanamycin selection, DiMSum; sequences stand for … in CUCUCU…GGAGGGAAAAGUUAUCAGGCAUGCACCUGGUAGCUAGUCUUUAAACCAAUAGAUUGCAUCGGUUUAAAAGGCAAGACCGUCAAAUUGCGGGAAAGGGGUCAACAGCCGUUCAGUACCAAGUCUCAGGGGAAACUUUGAGAUGGCCUUGCAAAGGGUAUGGUAAUAAGCUGACGGACAUGGUCCUAACCACGCAGCCAAGUCCUAAGUCAACAGAUCUUCUGUUGAUAUGGAUGCAGUUCACAGACUAAAUGUCGGUCGGGGAAGAUGUAUUCUUCUCAUAAGAUAUAGUCGGACCUCUCCUUAAUGGGAGCUAGCGGAUGAAGUGAUGCAACACUGGAGCCGCUGGGAACUAAUUUGUAUGCGAAAGUAUAUUGAUUAGUUUUGGAGUACUCGUGGUCG
Outline: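 Library with all eight P1ex-region intron nucleotides randomised, intron inside the knt kanamycin-resistance gene on pET-22b(+), in E. coli BL21(DE3). Cells grew overnight at 37°C or 30°C on LB agar with or without 25 μg/mL kanamycin (plus 100 μg/mL carbenicillin, 50 μM IPTG, 0.2% rhamnose), in six replicate transformations. Pooled colonies were amplicon-sequenced on Illumina HiSeq 2500. DiMSum fitness is the error-weighted combination of wild-type-normalised replicate fold changes, kanamycin versus none.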

| Sequence | self-splicing fitness (ln) (30 °C) | self-splicing fitness (ln) (37 °C) |
| --- | --- | --- |
| AACGAGCAAUAUUACGCACA | -2.86 ± 0.23 | -2.09 ± 0.21 |
| UGAAAGCAAUAUUACGUAUU | -3.21 ± 0.13 | -2.19 ± 0.12 |
| AGGGAGCAAUAUUACGCCAU | -3.13 ± 0.43 | – |
| CUAGAGCAAUAUUACGGCAU | -3.75 ± 0.19 | -2.75 ± 0.28 |
| AAUAAGCAAUAUUACGCUUG | -1.39 ± 0.13 | -0.982 ± 0.15 |
| AGAAAGCAAUAUUACGCCAC | – | -2.07 ± 0.41 |
| ACAUAGCAAUAUUACGAGCA | -2.89 ± 0.12 | -1.1 ± 0.11 |
| GGCUAGCAAUAUUACGCCGC | -3.44 ± 0.41 | – |
| UAGUAGCAAUAUUACGUGUG | -2.02 ± 0.11 | -1.23 ± 0.13 |
| UCGAAGCAAUAUUACGCCAG | -2.24 ± 0.25 | -2.09 ± 0.42 |
| GUACAGCAAUAUUACGGAUG | -2.79 ± 0.2 | -1.8 ± 0.17 |
| AGCAAGCAAUAUUACGCAAA | -3.11 ± 0.27 | -2.23 ± 0.24 |
| CGAGAGCAAUAUUACGCUCG | – | -2.39 ± 0.38 |
| GCGGAGCAAUAUUACGACGA | -0.227 ± 0.16 | -0.189 ± 0.14 |
| AGAGAGCAAUAUUACGAUUA | -2.43 ± 0.25 | -2.57 ± 0.32 |
| AGUAAGCAAUAUUACGAGCC | -0.632 ± 0.16 | -0.472 ± 0.17 |
| CUAGAGCAAUAUUACGUAAG | -0.628 ± 0.06 | 0.154 ± 0.089 |
| GAUCAGCAAUAUUACGCCGU | -0.933 ± 0.098 | -0.477 ± 0.12 |
| CACCAGCAAUAUUACGAACC | -3.66 ± 0.28 | -0.707 ± 0.25 |
| GACUAGCAAUAUUACGGCAC | -0.648 ± 0.14 | 0.581 ± 0.16 |
| UAUAAGCAAUAUUACGCAGA | -0.745 ± 0.45 | -1.25 ± 0.18 |

| Sequence | self-splicing fitness (ln) (30 °C) | self-splicing fitness (ln) (37 °C) |
| --- | --- | --- |
| AGAAAGCAAUAUUACGGCGU | 0.239 ± 0.073 | 0.133 ± 0.091 |
| GGGGAGCAAUAUUACGGUGA | -2.23 ± 0.36 | – |
| GAAAAGCAAUAUUACGACGU | 0.263 ± 0.088 | 0.769 ± 0.099 |
| ACUCAGCAAUAUUACGAGAU | -2.56 ± 0.11 | -1.81 ± 0.11 |
| AGUGAGCAAUAUUACGGACG | -1.16 ± 0.15 | -1.45 ± 0.21 |
| CACCAGCAAUAUUACGCCCC | -3.28 ± 0.38 | – |
| CUGAAGCAAUAUUACGGCUG | -0.126 ± 0.074 | 0.668 ± 0.11 |
| UACUAGCAAUAUUACGACCU | -2.01 ± 0.13 | -0.83 ± 0.15 |
| GACAAGCAAUAUUACGGGGA | -3.05 ± 0.12 | -1.75 ± 0.1 |
| AUCCAGCAAUAUUACGGUUC | -4.5 ± 0.17 | -1.95 ± 0.17 |
| GGUAAGCAAUAUUACGAACG | -0.0623 ± 0.11 | -0.0489 ± 0.12 |
| UACCAGCAAUAUUACGUAUG | -2.62 ± 0.073 | -1.58 ± 0.082 |
| UGCUAGCAAUAUUACGUCUC | -3.59 ± 0.16 | -2.91 ± 0.2 |
| AGCGAGCAAUAUUACGAGAG | -3.19 ± 0.32 | -2.94 ± 0.32 |
| CCCUAGCAAUAUUACGUCAA | -3.16 ± 0.32 | -3.46 ± 0.39 |
| GAGUAGCAAUAUUACGUUCG | -2.12 ± 0.15 | -0.913 ± 0.15 |
| ACGAAGCAAUAUUACGGACU | 0.0455 ± 0.045 | 0.53 ± 0.065 |
| CAAUAGCAAUAUUACGAUUG | -3.32 ± 0.17 | -1.9 ± 0.16 |
| GUUUAGCAAUAUUACGAGGG | -3.76 ± 0.36 | -2.73 ± 0.34 |
| GAUUAGCAAUAUUACGACAU | -0.469 ± 0.014 | -0.0848 ± 0.033 |
| ACGAAGCAAUAUUACGGUUG | -2.29 ± 0.07 | -1.31 ± 0.081 |

| Sequence | self-splicing fitness (ln) (30 °C) | self-splicing fitness (ln) (37 °C) |
| --- | --- | --- |
| UCUAAGCAAUAUUACGCGAU | -4.31 ± 0.33 | -3.83 ± 0.36 |
| AUAAAGCAAUAUUACGUACG | -0.889 ± 0.095 | -0.0766 ± 0.13 |
| UAAAAGCAAUAUUACGCGUU | -2.85 ± 0.13 | -1.14 ± 0.13 |
| UCGGAGCAAUAUUACGUAAA | -3.16 ± 0.31 | -1.55 ± 0.29 |
| UGCUAGCAAUAUUACGACAG | -0.698 ± 0.059 | 0.337 ± 0.093 |
| AUAUAGCAAUAUUACGCUGC | – | -1.74 ± 0.34 |
| UUGGAGCAAUAUUACGCCUG | -2.22 ± 0.2 | -1.2 ± 0.23 |
| GCUGAGCAAUAUUACGUUUC | -1.94 ± 0.18 | -1.55 ± 0.2 |
| UGUCAGCAAUAUUACGCCCA | 0.0616 ± 0.14 | 0.348 ± 0.18 |
| AAGAAGCAAUAUUACGCGUU | -2.74 ± 0.11 | -1.32 ± 0.11 |
| GUCGAGCAAUAUUACGGGAG | -3.67 ± 0.21 | -2.4 ± 0.2 |
| GGCAAGCAAUAUUACGCGAU | -2.6 ± 0.25 | -2.37 ± 0.24 |
| CUGAAGCAAUAUUACGAUAA | -2.51 ± 0.25 | -2.06 ± 0.29 |
| CCGGAGCAAUAUUACGCGCU | -1.24 ± 0.17 | – |
| UCGCAGCAAUAUUACGCUUG | -1.93 ± 0.14 | -1.83 ± 0.15 |
| AAGUAGCAAUAUUACGCGCU | -1.47 ± 0.11 | -0.822 ± 0.12 |
| AAUGAGCAAUAUUACGUAUG | – | -2.92 ± 0.28 |
| CACCAGCAAUAUUACGUCUG | -1.55 ± 0.056 | -0.504 ± 0.07 |
| UCCAAGCAAUAUUACGCGAG | -4.03 ± 0.24 | -2.93 ± 0.27 |
| GUUGAGCAAUAUUACGCAGU | – | -1.25 ± 0.4 |
| AUACAGCAAUAUUACGUCAU | -1.53 ± 0.084 | -0.888 ± 0.088 |
